{
  "source": "FireProtDB (doi:10.1046/j.1432-1327.1999.00491.x)",
  "proteins": {"B1": {"name": "Regulatory protein cro wild type, P03036 (protein)", "chain": "MQTLSERLKKRRIALKMTQTELATKAGVKQQSIQLIEAGVTKRPRFLFEIAMALNCDPVWLQYGTKRGKAA"}},
  "settings": "Enterobacteria phage 434, Thermal, DSC, reversible: yes, whole UniProt chain shown; for unfolding free energy: 25 °C",
  "key": {"[1]": {"settings": "pH 2, glycine 20 mM, NaCl 200 mM"}, "[2]": {"settings": "pH 3, glycine 20 mM, NaCl 200 mM"}, "[3]": {"settings": "pH 4, Sodium acetate 20 mM, NaCl 200 mM"}, "[4]": {"settings": "pH 4.5, Sodium acetate 20 mM, NaCl 200 mM"}},
  "note": "“And” between values parts separate entries of the source, which are not always exact repeats. Equal entries are not always repeated.",
  "data": [
    {"protein": "B1", "values": [
      {"measurement": "unfolding free energy", "setting": "[1]", "result": 1.17, "unit": "kcal/mol"},
      {"measurement": "unfolding free energy", "setting": "pH 2, glycine 20 mM", "result": 0.22, "unit": "kcal/mol"},
      {"measurement": "Tm", "setting": "[1]", "result": "38.3 °C and 39.4 °C and 35.6 °C"},
      {"measurement": "unfolding enthalpy (calorimetric)", "setting": "[1]", "result": "33.5 kcal/mol and 33.9 kcal/mol and 34.2 kcal/mol"},
      {"measurement": "unfolding enthalpy (calorimetric)", "setting": "pH 2, glycine 20 mM", "result": "24.1 kcal/mol and 27.5 kcal/mol and 22.2 kcal/mol"},
      {"measurement": "unfolding free energy", "setting": "[2]", "result": 2.27, "unit": "kcal/mol"},
      {"measurement": "unfolding free energy", "setting": "pH 3, glycine 20 mM", "result": 2.58, "unit": "kcal/mol"},
      {"measurement": "unfolding enthalpy (calorimetric)", "setting": "[2]", "result": "42.1 kcal/mol and 40.4 kcal/mol and 39 kcal/mol"},
      {"measurement": "unfolding enthalpy (calorimetric)", "setting": "pH 3, glycine 20 mM", "result": "34.4 kcal/mol and 32 kcal/mol"},
      {"measurement": "unfolding free energy", "setting": "[3]", "result": 3.78, "unit": "kcal/mol"},
      {"measurement": "unfolding free energy", "setting": "pH 4, Sodium acetate 20 mM", "result": 3.59, "unit": "kcal/mol"},
      {"measurement": "Tm", "setting": "[3]", "result": "59.8 °C and 57.8 °C and 57.2 °C"},
      {"measurement": "unfolding enthalpy (calorimetric)", "setting": "[3]", "result": "51.1 kcal/mol and 50 kcal/mol and 49.7 kcal/mol"},
      {"measurement": "Tm", "setting": "pH 4, Sodium acetate 20 mM", "result": "58.2 °C and 53.6 °C"},
      {"measurement": "unfolding enthalpy (calorimetric)", "setting": "pH 4, Sodium acetate 20 mM", "result": "50 kcal/mol and 45.6 kcal/mol and 44.2 kcal/mol"},
      {"measurement": "unfolding free energy", "setting": "[4]", "result": 4.33, "unit": "kcal/mol"},
      {"measurement": "unfolding free energy", "setting": "pH 4.5, Sodium acetate 20 mM", "result": 4.4, "unit": "kcal/mol"},
      {"measurement": "Tm", "setting": "[4]", "result": "63.7 °C and 63.5 °C and 60.2 °C"},
      {"measurement": "unfolding enthalpy (calorimetric)", "setting": "[4]", "result": "54 kcal/mol and 54.7 kcal/mol and 52.1 kcal/mol"},
      {"measurement": "unfolding enthalpy (calorimetric)", "setting": "pH 4.5, Sodium acetate 20 mM", "result": "53.1 kcal/mol and 46.4 kcal/mol"},
      {"measurement": "unfolding free energy", "setting": "pH 7, PIPES 20 mM, NaCl 200 mM", "result": 5.33, "unit": "kcal/mol"},
      {"measurement": "unfolding free energy", "setting": "pH 7, PIPES 20 mM", "result": 5.35, "unit": "kcal/mol"},
      {"measurement": "Tm", "setting": "pH 7, PIPES 20 mM, NaCl 200 mM", "result": "70.7 °C and 66.6 °C and 67.6 °C"},
      {"measurement": "unfolding enthalpy (calorimetric)", "setting": "pH 7, PIPES 20 mM, NaCl 200 mM", "result": "58.6 kcal/mol and 57.6 kcal/mol and 58.1 kcal/mol"},
      {"measurement": "Tm", "setting": "pH 7, PIPES 20 mM", "result": "70.7 °C and 67.2 °C"},
      {"measurement": "unfolding enthalpy (calorimetric)", "setting": "pH 7, PIPES 20 mM", "result": "59 kcal/mol and 54 kcal/mol"}
    ]}
  ]
}
